Experiments:
[1] = biological target: heteromeric ASIC1a/2a (oocytes co-expressing ASIC1a and ASIC2a) (rat) (UniProt P55926)
[2] = biological target: ASIC1a-2a-1a concatamer (rat) (UniProt P55926)
[3] = biological target: ASIC1a-2a-2a concatamer (rat) (UniProt P55926)

Substance “psalmotoxin 1 (PcTx1) (from UniProt P60514 1-40) (peptide)” has a current left after 50 nM PcTx1 in the conditioning solution (pH 6.95), activation with pH 4.0, two-electrode voltage clamp in Xenopus oocytes; percent of the first current amplitude [1] of 66.5%, a current left after 50 nM PcTx1 in the conditioning solution (pH 6.95), activation with pH 4.0, two-electrode voltage clamp in Xenopus oocytes; percent of the first current amplitude [2] of 15.7% and a current left after 50 nM PcTx1 in the conditioning solution (pH 6.95), activation with pH 4.0, two-electrode voltage clamp in Xenopus oocytes; percent of the first current amplitude [3] of 64.8%.

Reference: paper PMC4899722
